In FireProtDB (doi:10.1021/bi100877y):

Settings: Escherichia coli (strain K12); pH 7; Thermal; DSC; phosphate 50 mM; whole UniProt chain shown

B1: Outer membrane porin C wild type, P06996 (protein)
chain: MKVKVLSLLVPALLVAGAANAAEVYNKDGNKLDLYGKVDGLHYFSDNKDVDGDQTYMRLGFKGETQVTDQLTGYGQWEYQIQGNSAENENNSWTRVAFAGLKFQDVGSFDYGRNYGVVYDVTSWTDVLPEFGGDTYGSDNFMQQRGNGFATYRNTDFFGLVDGLNFAVQYQGKNGNPSGEGFTSGVTNNGRDALRQNGDGVGGSITYDYEGFGIGGAISSSKRTDAQNTAAYIGNGDRAETYTGGLKYDANNIYLAAQYTQTYNATRVGSLGWANKAQNFEAVAQYQFDFGLRPSLAYLQSKGKNLGRGYDDEDILKYVDVGATYYFNKNMSTYVDYKINLLDDNQFTRDAGINTDNIVALGLVYQF
With B1 the Tm was 87 °C and the “unfolding enthalpy (calorimetric)” value was 328 kcal/mol.
